Test results taken from patent US20040258659A1.

Target: CCR5, P51681
Experiment: competitive radioligand binding on whole CHO-CCR5 cells at 4 C, 12 pM [125I]MIP-1α tracer
Conditions: remark: other sources report otherwise

Chain of CCR5, P51681 (P51681 whole entry): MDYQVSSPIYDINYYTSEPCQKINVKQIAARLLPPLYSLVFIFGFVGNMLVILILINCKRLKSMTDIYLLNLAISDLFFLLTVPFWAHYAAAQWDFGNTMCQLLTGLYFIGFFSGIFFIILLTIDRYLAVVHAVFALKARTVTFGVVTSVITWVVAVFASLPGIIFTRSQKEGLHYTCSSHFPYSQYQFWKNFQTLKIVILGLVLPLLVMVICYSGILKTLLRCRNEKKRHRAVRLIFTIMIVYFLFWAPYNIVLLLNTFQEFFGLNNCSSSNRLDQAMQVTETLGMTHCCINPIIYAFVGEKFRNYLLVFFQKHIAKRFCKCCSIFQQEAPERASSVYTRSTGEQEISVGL

B1: RANTES, P13501 24-91 (ligand, human, UniProt P13501 24-91, looked up)
chain: SPYSSDTTPCCFAYIARPLPRAHIKEYFYTSGKCSNPAVVFVTRKNRQVCANPEKKWVREYINSLEMS
Q: With B1 as the binder, how does the IC50 read?
A: The IC50 was 1.7 nM.
